Measured values reported in US20090235392A1 (PIONEER HI BRED INTERNATIONAL, published 2009).

B1: full-length APK3 fusion protein (other)
chain: MATKLESFKVVEKLGVEKGEKGKMMSKKKNVKKDGDESESGFWFRFKFIFSCISSRSKVDSSMNATAVIAEPKKVIEKLEGHPAPTKDTGCAESGSSTPLMSGELKYSSKLRIFMFNDLKLATRNFRPESLLGEGGFGCVFKGWIEENGTAPVKPGTGLTVAVKTLNPDGLQGHKEWLAEINFLGNLVHPSLVKLVGYCMEEDQRLLVYEFMPRGSLENHLFRRTLPLPWSVRMKIALGAAKGLAFLHEEAEKPVIYRDFKTSNILLDGEYNAKLSDFGLAKDAPDEKKSHVSTRVMGTYGYAAPEYVMTGHLTTKSDVYSFGVVLLEILTGRRSVDKSRPNGEQNLVEWVRPHLLDKKRFYRLLDPRLEGHYSIKGAQKATQVAAQCLNRDSKARPKMSEVVEALKPLPNLKDFASSSSSFQTMQPVAKNGVRTQGGGFVSRNGPPMRSLSSLNLPQASPYRYARQSPKPKGKEP
notes: Full-length APK3 tested as a fusion protein in the two-hybrid assay; also called AtAPK3; At3G28690; not shown: two-hybrid fusion partner
B2: APK3(115-476) (other)
chain: MFNDLKLATRNFRPESLLGEGGFGCVFKGWIEENGTAPVKPGTGLTVAVKTLNPDGLQGHKEWLAEINFLGNLVHPSLVKLVGYCMEEDQRLLVYEFMPRGSLENHLFRRTLPLPWSVRMKIALGAAKGLAFLHEEAEKPVIYRDFKTSNILLDGEYNAKLSDFGLAKDAPDEKKSHVSTRVMGTYGYAAPEYVMTGHLTTKSDVYSFGVVLLEILTGRRSVDKSRPNGEQNLVEWVRPHLLDKKRFYRLLDPRLEGHYSIKGAQKATQVAAQCLNRDSKARPKMSEVVEALKPLPNLKDFASSSSSFQTMQPVAKNGVRTQGGGFVSRNGPPMRSLSSLNLPQASPYRYARQSPKPKGKEP
notes: Second truncated APK3 tested as a fusion protein in the two-hybrid assay; also called second truncated APK3 protein; At3G28690; not shown: two-hybrid fusion partner

Molecular target: T1, GAL4BD:CKI2(590-922) (Arabidopsis thaliana)
T1 construct: Yeast two-hybrid bait; Any linker or tag from the vector is not described; also called AT-CKI2(590-922); pRM430
Assay: yeast two-hybrid
Text: Clones representing two independent genes, ARABIDOPSIS HISTIDINE PHOSPHOTRANSFER PROTEIN 3 (AHP3, At5G39340) and At3G28690, a putative serine/threonine protein kinase, were identified from the library screen with GAL4BD:CKI2(590-922). AHPs are the described signaling targets of canonical receptor histidine kinases, such as CRE1, AHK1 and ETR1 (Grefen and Harter, 2004). […] At3G28690 is homologous to the previously published ARABIDOPSIS PROTEIN KINASE 1 (APK1) (Hirayama and Oka, 1992) and APK2 (Ito, et al., 1997) and is designated APK3. […] APK3 has been classified as a Receptor Like Cytoplasmic Kinase (RLCK) VII (Family 1.2.2) in Arabidopsis. […] Its use in modulation of cytokinin-dependent growth responses is being pursued through both transgenic and mutant analysis.
The yeast two-hybrid assays discussed in Example 1 were conducted as follows. Polyadenylated mRNA was isolated from Arabidopsis aerial tissue using a FastTrack™ mRNA kit (Invitrogen, Carlsbad, Calif., USA). First strand cDNA was created using a cDNA synthesis kit (Stratagene, La Jolla, Calif., USA), subsequently cloned into pGADT7 (Clontech, Palo Alto, Calif., USA), and the cDNA library was transformed into the yeast strain AH109 (Clontech).

Row | Binder | binding result
1 | B1 | no binding
2 | B2 | no binding
